Measured values published in patent publication US20050182242A1, “Global analysis of protein activities using proteome chips” (priority 2001, published 2005).

B1: Ypt31p: yeast protein with GTP-binding activity (protein, UniProt P38555 2-223, looked up)
GTP-binding protein YPT31/YPT8: SSEDYGYDYDLLFKIVLIGDSGVGKSNLLSRFTKNEFNMDSKSTIGVEFATRTLEIDGKRIKAQIWDTAGQERYRAITSAYYRGAVGALIVYDISKSSSYENCNHWLSELRENADDNVAVGLIGNKSDLAHLRAVPTEESKTFAQENQLLFTETSALNSENVDKAFEELINTIYQKVSKHQMDLGDSSANGNANGASAPNGPTISLTPTPNENKKANGNNCC
B2: Ils1p: isoleucyl-tRNA synthetase (protein, UniProt P09436 1-1072, looked up)
Isoleucine--tRNA ligase, …: MSESNAHFSFPKEEEKVLSLWDEIDAFHTSLELTKDKPEFSFFDGPPFATGTPHYGHILASTIKDIVPRYATMTGHHVERRFGWDTHGVPIEHIIDKKLGITGKDDVFKYGLENYNNECRSIVMTYASDWRKTIGRLGRWIDFDNDYKTMYPSFMESTWWAFKQLHEKGQVYRGFKVMPYSTGLTTPLSNFEAQQNYKDVNDPAVTIGFNVIGQEKTQLVAWTTTPWTLPSNLSLCVNADFEYVKIYDETRDRYFILLESLIKTLYKKPKNEKYKIVEKIKGSDLVGLKYEPLFPYFAEQFHETAFRVISDDYVTSDSGTGIVHNAPAFGEEDNAACLKNGVISEDSVLPNAIDDLGRFTKDVPDFEGVYVKDADKLIIKYLTNTGNLLLASQIRHSYPFCWRSDTPLLYRSVPAWFVRVKNIVPQMLDSVMKSHWVPNTIKEKRFANWIANARDWNVSRNRYWGTPIPLWVSDDFEEVVCVGSIKELEELTGVRNITDLHRDVIDKLTIPSKQGKGDLKRIEEVFDCWFESGSMPYASQHYPFENTEKFDERVPANFISEGLDQTRGWFYTLAVLGTHLFGSVPYKNVIVSGIVLAADGRKMSKSLKNYPDPSIVLNKYGADALRLYLINSPVLKAESLKFKEEGVKEVVSKVLLPWWNSFKFLDGQIALLKKMSNIDFQYDDSVKSDNVMDRWILASMQSLVQFIHEEMGQYKLYTVVPKLLNFIDELTNWYIRFNRRRLKGENGVEDCLKALNSLFDALFTFVRAMAPFTPFLSESIYLRLKEYIPEAVLAKYGKDGRSVHFLSYPVVKKEYFDEAIETAVSRMQSVIDLGRNIREKKTISLKTPLKTLVILHSDESYLKDVEALKNYIIEELNVRDVVITSDEAKYGVEYKAVADWPVLGKKLKKDAKKVKDALPSVTSEQVREYLESGKLEVAGIELVKGDLNAIRGLPESAVQAGQETRTDQDVLIIMDTNIYSELKSEGLARELVNRIQKLRKKCGLEATDDVLVEYELVKDTIDFEAIVKEHFDMLSKTCRSDIAKYDGSKTDPIGDEEQSINDTIFKLKVFKL
B3: THI13: yeast protein involved in nucleotide metabolism, GST-HisX6 fusion (protein, UniProt Q07748 1-340, looked up)
4-amino-5-hydroxymethyl-2-meth …: MSTDKITFLLNWQPTPYHIPIFLAQTKGYFKEQGLDIAILEPTNPSDVTELIGSGKVDMGLKAMIHTLAAKARGFPVTSVASLLDEPFTGVLYLKGSGITEDFQSLKGKKIGYVGEFGKIQIDELTKHYGMKPEDYTAVRCGMNVAKYIIEGKIDAGIGIECMQQVELEEYLAKQGRPASDAKMLRIDKLACLGCCCFCTVLYICNDEFLKKNPEKVRKFLKAIKKATDYVLADPVKAWKEYIDFKPQLNNDLSYKQYQRCYAYFSSSLYNVHRDWKKVTGYGKRLAILPPDYVSNYTNEYLSWPEPEEVSDPLEAQRLMAIHQEKCRQEGTFKRLALPA
modifications: GST-His6 tag
notes: yeast protein involved in nucleotide metabolism, GST-HisX6 fusion
B4: Sqt1p: yeast protein that interacts with Rp110p (protein, UniProt P35184 1-431, looked up)
Ribosome assembly protein SQT1: MEPQEEFITTEEVEQEIVPTVEVEQDVPVDIEGENDDDDEMMNDDEEALEVDMSNNSLTYFDKHTDSVFAIGHHPNLPLVCTGGGDNLAHLWTSHSQPPKFAGTLTGYGESVISCSFTSEGGFLVTADMSGKVLVHMGQKGGAQWKLASQMQEVEEIVWLKTHPTIARTFAFGATDGSVWCYQINEQDGSLEQLMSGFVHQQDCSMGEFINTDKGENTLELVTCSLDSTIVAWNCFTGQQLFKITQAEIKGLEAPWISLSLAPETLTKGNSGVVACGSNNGLLAVINCNNGGAILHLSTVIELKPEQDELDASIESISWSSKFSLMAIGLVCGEILLYDTSAWRVRHKFVLEDSVTKLMFDNDDLFASCINGKVYQFNARTGQEKFVCVGHNMGVLDFILLHPVANTGTEQKRKVITAGDEGVSLVFEVPN
B5: ATP1: yeast alpha subunit of F1-ATP synthase, GST-HisX6 fusion (protein, UniProt P07251 36-545, looked up)
ATP synthase subunit alpha, …: ASTKAQPTEVSSILEERIKGVSDEANLNETGRVLAVGDGIARVFGLNNIQAEELVEFSSGVKGMALNLEPGQVGIVLFGSDRLVKEGELVKRTGNIVDVPVGPGLLGRVVDALGNPIDGKGPIDAAGRSRAQVKAPGILPRRSVHEPVQTGLKAVDALVPIGRGQRELIIGDRQTGKTAVALDTILNQKRWNNGSDESKKLYCVYVAVGQKRSTVAQLVQTLEQHDAMKYSIIVAATASEAAPLQYLAPFTAASIGEWFRDNGKHALIVYDDLSKQAVAYRQLSLLLRRPPGREAYPGDVFYLHSRLLERAAKLSEKEGSGSLTALPVIETQGGDVSAYIPTNVISITDGQIFLEAELFYKGIRPAINVGLSVSRVGSAAQVKALKQVAGSLKLFLAQYREVAAFAQFGSDLDASTKQTLVRGERLTQLLKQNQYSPLATEEQVPLIYAGVNGHLDGIELSRIGEFESSFLSYLKSNHNELLTEIREKGELSKELLASLKSATESFVATF
modifications: GST-His6 tag
notes: yeast alpha subunit of F1-ATP synthase, GST-HisX6 fusion

What was measured:
total yeast genomic DNA = assay: Yeast proteome chip probed with labeled genomic DNA; assay type: binding; settings: Cy3-labeled genomic DNA, visual inspection
Text: Protein-DNA and protein-RNA interactions are important for many fundamental biological functions such as transcription regulation, chromosome segregation and maintenance, and RNA transport and processing (Williamson, 2000, Nat. Struct. Biol. 7(10):834-7). To explore the possibility of using a proteome chip to identify proteins that bind to DNA or RNA molecules, total yeast genomic DNA was labeled using Cy3-CTP and Klenow fragment, and polyA^+ was labeled using a biotinylated psoralen-derivative (31). Each probe was incubated with a different proteome chip (FIG. 3A).
The protein-nucleic acid interaction was assayed as follows. The nucleic acid robes were labeled as described by Winzeler et al. (1999, Science 285:901). Blocked proteome chips were washed three to five times in PBS buffer, and the extra liquid on the glass surface was removed by tapping the slides vertically on a KIMWIPE™. 200 μl of labeled nuclei acid probe ([…] poly(dC/dG); 100-300 mM NaCl; 50-300 mM HEPES, pH 7.0-8.5; 10 mM MgCl2) was added to the proteome chip and immediately covered by a hydrophobic plastic cover slip (GRACE BIO-LABS™, USA). After trapped air bubbles were removed, the chip was incubated in a humidity chamber in the dark at room temperature (“RT”) for one hour. To remove the cover slip, the chip was immersed into large volume of PBS buffer(>50 ml), so that the slip would float away. The chip was then moved to a second PBS bath (>50 ml) and washed 3×5 min with shaking in the dark at RT. To completely remove the liquid on the chip, the chip was spun to dryness at 1500-2000 rpm for 5-10 min at RT.

[1] = tested on: phosphatidylcholine (PC) liposomes; assay: Yeast proteome chip probed with PC liposomes; settings: liposome binding signal on yeast proteome chip, Cy3-streptavidin detection
In short: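 Binding detected by fluorescent streptavidin (Cy3 or Cy5, >30 min in the dark at RT) recognizing biotin-DHPE (1% w/w) in PC liposomes, which carried 5% (w/w) of the named phosphoinositide unless PC-only. Liposomes, made by sonication in TBS, were applied to blocked chips for 1 h at RT, then washed in PBS.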

PI(4)P liposomes = assay: Yeast proteome chip probed with PI(4)P liposomes; settings: liposome binding signal on yeast proteome chip, Cy3-streptavidin detection
PI(3,4,5)P3 liposomes = assay: Yeast proteome chip probed with PI(3,4,5)P3 liposomes; settings: liposome binding signal on yeast proteome chip, Cy3-streptavidin detection
PI(4,5)P2 liposomes = assay: Yeast proteome chip probed with PI(4,5)P2 liposomes; settings: liposome binding signal on yeast proteome chip, Cy3-streptavidin detection
PI(3,4)P2 liposomes = assay: Yeast proteome chip probed with PI(3,4)P2 liposomes; settings: liposome binding signal on yeast proteome chip, Cy3-streptavidin detection
PI(3)P liposomes = assay: Yeast proteome chip probed with PI(3)P liposomes; settings: liposome binding signal on yeast proteome chip, Cy3-streptavidin detection
[2] = tested on: phospholipids (phosphatidylinositols vs phosphatidylcholine); assay: Proteome chip lipid-binding screen, overall analysis of six liposomes (PI/PC specificity); settings: compared with phosphatidylcholine
Text: FIGS. 4A-4D. Analysis of the phosphatidylinositol-binding proteins. To determine the phosphatidylinositol (“PI”)-binding specificity of 150 positive proteins, their binding signals were normalized against the corresponding binding signals of phosphatidylcholine (“PC”). Based on the ratios (“PI/PC”), the proteins were grouped into four categories: (A) 30 strong and specific, (B) 43 strong and nonspecific, (C) 19 weak and specific, and (D) 58 weak and nonspecific phosphatidylinositol-binding proteins. The intensity represents the PI/PC signal ratio as shown by the scale in the figure. The column, labeled “10^n” to the right of the PI/PC binding ratios indicates the maximum binding signal intensity (open boxes) and its confidence interval (solid horizontal lines); the numbers indicate the log of the values. Boxes in the three columns to the right of the confidence interval column indicate membrane-associated proteins (“Membrane”), kinases (“Kinase”), and uncharacterized ORFs (“Unknown”), respectively.
To identify PI-binding proteins in yeast, liposomes were used as probes because the liposome provides the most relevant physiological condition to assay the interactors. Six types of liposomes were used. Each contains phosphatidylcholine (“PC”) with 1% (w/w) N-(biotinoyl)-1,2-dihexadecanoyl-sn-glycero-3-phosphoethanolamine, triethylammonium salt (biotin DHPE). The biotinylated lipid serves as a label that can be detected by Cy3-streptavidin (21). In addition to PC, the five other liposomes contain either 5% (w/w) PI(3)P, PI(4)P, PI(3,4)P2, PI(4,5)P2, or PI(3,4,5)P3 (FIG. 3A).
The protein-liposome interaction was assayed as follows. Appropriate amounts of each lipid in chloroform were mixed and dried under nitrogen. The lipid mixture was resuspended in TBS buffer by vortexing. The liposomes were created by sonication. Blocked proteome chips were washed three to five times in PBS buffer, and the extra liquid on the glass surface was removed by tapping the slides vertically on a KIMWIPE™. 200 μl of liposome solution was added to the proteome chip and immediately covered by a hydrophobic plastic cover slip (GRACE BIO-LAB™, USA). After trapped air bubbles were removed, the chip was incubated in a humidity chamber at RT for one hour. To remove the cover slip, the chip was immersed into large volume of PBS buffer (50 ml), so that the slip would float away. The chip was then moved to a second PBS bath (>50 ml) and washed 3×5 min with shaking at RT. After removing extra liquid on the surface of the chip, about 100 μl of Cy3 or Cy5 conjugated streptavidin (PIERCE™, USA; 1:2000 to 1:4000 dilution) was added to the surface and covered by a hydrophobic plastic cover slip (GRACE BIO-LABS™, USA). The chip was incubated for greater than 30 min in the dark at RT. The chip was then washed as described above. To completely remove the liquid on the chip, the chip was spun to dryness at 1500-2000 rpm for 5-10 min at RT.
An algorithm was devised to assist in the identification of positive signals (42). Fifty-two (35%) of the interactors (i.e., lipid-binding proteins) correspond to uncharacterized proteins thus ascribing the first biochemical activities to those proteins.
The interactors (i.e., phospholipid-binding proteins) were grouped in several ways (42). First, the interactors were sorted according to whether they bound lipids strongly or weakly, based on the phospholipid-binding signal relative to the amount of GST (FIG. 4). Slightly more (72%) of the strong lipid binding proteins (FIGS. 4A and 4B) were characterized relative to the weakly binding proteins (54%) (FIGS. 4C and 4D). Many of the strong lipid-binding proteins are membrane-associated, or are predicted to be associated with membranes, whereas fewer of the weaker binding proteins appear to be associated with membranes (FIG. 4, “Membrane” column). […] Moreover, thirteen of the seventeen protein kinases bind very strongly to the phospholipids. […]

Molecule	binding of genomic DNA probe (total yeast genomic DNA)	PC [1]	PI(4)P (PI(4)P liposomes)	PI(3, 4, 5)P3 (PI(3,4,5)P3 liposomes)	PI(4, 5)P2 (PI(4,5)P2 liposomes)	PI(3, 4)P2 (PI(3,4)P2 liposomes)	PI(3)P (PI(3)P liposomes)	preferential binding of particular phosphatidylinositol lipids [2]
B1	bind the DNA probe	–	–	–	–	–	–	–
B2	identified	–	–	–	–	–	–	–
B3	bind the DNA probe	43.14	55.09	39.04	64.67	75.66	13.75	–
B4	tested positive	–	–	–	–	–	–	–
B5	–	0.29	28.09	26.44	46.38	11.93	–	preferentially binds PI(3,4)P2
